Source: US20230192845A1 (BLINK BIOMEDICAL, published 2023)

T1: human CD96 short isoform v2 expressed on CHO cells (human, UniProt P40200 22-585)
T1 construct: also called hCD96v2; CD96v2; not shown: C-terminal HA-tag
T1 sequence: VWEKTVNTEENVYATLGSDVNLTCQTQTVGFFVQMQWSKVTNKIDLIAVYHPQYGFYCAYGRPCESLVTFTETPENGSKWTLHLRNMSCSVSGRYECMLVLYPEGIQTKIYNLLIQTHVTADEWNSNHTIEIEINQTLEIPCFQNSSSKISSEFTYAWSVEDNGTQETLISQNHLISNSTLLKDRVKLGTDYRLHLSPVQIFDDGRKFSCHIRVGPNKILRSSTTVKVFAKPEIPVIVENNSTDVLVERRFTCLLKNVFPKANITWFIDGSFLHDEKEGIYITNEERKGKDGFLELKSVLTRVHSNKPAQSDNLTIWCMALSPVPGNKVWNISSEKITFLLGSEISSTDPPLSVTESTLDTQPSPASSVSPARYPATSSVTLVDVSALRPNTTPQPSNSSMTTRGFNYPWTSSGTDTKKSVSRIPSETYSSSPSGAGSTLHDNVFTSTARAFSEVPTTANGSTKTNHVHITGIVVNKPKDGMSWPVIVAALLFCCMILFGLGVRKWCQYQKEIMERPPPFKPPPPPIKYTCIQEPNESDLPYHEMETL

T2: rhesus CD96 transiently expressed on CHO cells (rhesus, UniProt P40200 22-585 (human entry))
T2 construct: also called rhesus CD96, short isoform
T2 chain: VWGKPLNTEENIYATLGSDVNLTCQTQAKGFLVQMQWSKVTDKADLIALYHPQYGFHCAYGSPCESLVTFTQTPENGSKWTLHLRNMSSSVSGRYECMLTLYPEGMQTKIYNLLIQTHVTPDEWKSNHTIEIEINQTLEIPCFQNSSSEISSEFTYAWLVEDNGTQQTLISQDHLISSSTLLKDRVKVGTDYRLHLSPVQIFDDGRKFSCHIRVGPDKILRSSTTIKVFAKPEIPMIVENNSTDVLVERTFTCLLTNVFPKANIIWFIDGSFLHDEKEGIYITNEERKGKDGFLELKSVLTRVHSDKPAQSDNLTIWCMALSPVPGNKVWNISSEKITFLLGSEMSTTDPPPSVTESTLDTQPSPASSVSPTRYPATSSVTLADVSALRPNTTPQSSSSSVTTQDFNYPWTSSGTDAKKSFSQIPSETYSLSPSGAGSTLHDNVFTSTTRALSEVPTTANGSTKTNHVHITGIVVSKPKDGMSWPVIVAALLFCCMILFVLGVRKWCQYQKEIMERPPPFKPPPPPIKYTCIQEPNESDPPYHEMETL

T3: mouse CD96 expressed on CHO cells (mouse, UniProt Q3U0X8 22-602)
T3 construct: whole, on cells; also called mCD96
T3 sequence (looked up): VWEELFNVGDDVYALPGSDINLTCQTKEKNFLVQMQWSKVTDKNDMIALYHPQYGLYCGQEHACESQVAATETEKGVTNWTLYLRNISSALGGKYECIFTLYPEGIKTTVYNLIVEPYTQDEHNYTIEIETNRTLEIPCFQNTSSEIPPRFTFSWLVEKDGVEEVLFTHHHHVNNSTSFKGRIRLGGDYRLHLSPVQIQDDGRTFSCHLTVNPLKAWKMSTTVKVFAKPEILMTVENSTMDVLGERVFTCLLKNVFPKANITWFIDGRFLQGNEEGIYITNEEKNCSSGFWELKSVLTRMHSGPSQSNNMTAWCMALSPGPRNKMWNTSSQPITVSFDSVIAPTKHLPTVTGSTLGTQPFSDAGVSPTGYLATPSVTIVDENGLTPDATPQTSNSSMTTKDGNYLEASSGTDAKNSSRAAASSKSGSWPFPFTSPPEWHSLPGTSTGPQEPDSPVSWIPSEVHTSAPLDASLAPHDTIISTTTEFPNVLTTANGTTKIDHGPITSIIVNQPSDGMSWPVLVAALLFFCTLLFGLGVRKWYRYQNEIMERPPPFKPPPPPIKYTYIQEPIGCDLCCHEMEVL


Legend:
[1] = biological target: T1, human CD96 short isoform v2 expressed …; test: FCM, inhibition of hCD155-Fc binding to hCD96v2-CHO cells
Protocol: All candidates except BL006-2-19 that bound very weakly on hCD96v2 by FCM were tested for their capacity to inhibit the binding of human CD155 to hCD96v2 stably expressed on CHO cells. Human CD96-transfected CHO cells (3×10⁵ cells/well of 96-well plate) were incubated at +4° C. for 30 minutes with serial dilutions of anti-CD96 antibodies or isotype control antibody (in mIgG2a or mIgG2aD265A format) in the presence of 4 μg/mL of biotinylated hCD155-Fc (produced and biotinylated at BliNK).
% inhibition=(1−(MFI_wAb&CD155−MFI_CHO)/(MFI_wCD155−MFI_CHO))×100, where MFI_wAb&CD155 is the Mean Intensity Fluorescence (MFI) obtained with the hCD96-CHO cells incubated with the tested antibody and hCD155-hFc; MFI_CHO is the MFI obtained in the absence of hCD155 and mAbs; and MFI_wCD155 is the fluorescence with hCD155 but without pre-incubation with antibody (0% CD155 binding inhibition). The % of inhibition was plotted against antibody concentration and the IC50 values were calculated by using a nonlinear regression analysis model of the GraphPad Prism software.

[2] = biological target: T2, rhesus CD96 transiently expressed on …; test: flow cytometry on CHO cells transiently expressing rhesus CD96; antibody at 1 (thin line) and 10 µg/ml (thick dashed line), filled grey = isotype control
Protocol: FIG. 7: Binding profiles of anti-CD96 antibodies on CHO cells transfected with rhesus CD96. Anti-CD96 antibodies or the corresponding isotype control mAbs were tested for their capacity to recognize rhesus CD96 transiently expressed on CHO cells by flow cytometry. Each histogram represents the overlay of the fluorescence intensity obtained for each antibody tested at 1 (black line) and 10 μg/ml (thick dashed black line) and compared to the fluorescence obtained with an isotypic control (filled grey histogram).
(§1) The capacity of the identified mouse anti-human CD96 antibodies to recognize the CD96 protein from other species was further analyzed by flow cytometry by using CHO cells expressing the mouse or the rhesus CD96. The expression of the species-specific CD96 on CHO cell surface was confirmed by using staining with appropriate anti-CD96 antibodies and flow cytometry on non-fixed cells. The rat anti-mCD96 antibody clone #630612 (R&D Systems) and the candidate BL006-9-1 (positive by ELISA on rhesus CD96) were used to confirm the expression of rhesus CD96, while the clone 6A6 (rat IgG2a, e-Bioscience) was used to verify the expression of mouse CD96.
(§2) Mouse anti-CD96 antibodies and isotype control antibodies were incubated at 10 or 1 μg/mL with CHO cells expressing different CD96 species at +4° C. for 30 minutes.

[3] = biological target: T1, human CD96 short isoform v2 expressed …; test: FCM on hCD96v2-CHO cells
Protocol: FIG. 6: Binding profiles of anti-hCD96 antibodies on human CD96-transfected CHO cells (hCD96v2, short isoform). CHO cells expressing hCD96v2 were incubated with serial dilution of the indicated mIgG1 or mIgG2a anti-CD96 or isotype control antibodies. […] The results are expressed as the difference of mean fluorescence intensity (delta MFI) between cells stained with antibodies and cells without antibodies. Dose response curves were obtained from GraphPad prism software using a non-linear regression fit with a variable slope model (4 parameters). To simplify the reading, results from the various anti-hCD96 candidates are shown on 4 different panels.
The capacity of the identified mouse anti-CD96 antibodies to recognize the cell membrane expressed human CD96 was further analyzed by flow cytometry (FCM) by using CHO cells stably transfected with the CD96 short isoform v2 (CD96v2; Genbank accession number NM_005816, flanked in C-terminus with HA-tag) (SEQ ID NO: 268).
Mouse anti-CD96 antibodies and isotype control antibodies were incubated at various concentrations from 10 μg/mL to 4.6 ng/mL with CHO cells expressing human CD96 at +4° C. for 30 minutes. […] The differences between the mean fluorescence intensity (MFI) obtained for each of the antibody concentration and the intensity obtained in absence of primary antibody (delta-MFI), were calculated and plotted against the concentrations of antibodies.

[4] = biological target: T3, mouse CD96 expressed on CHO cells; test: FCM on CHO cells expressing mouse CD96
From the text: as §1, §2

Binder	IC50 [1]	Maximal Inhibition Capacity (%) [1]	binding result [2]	EC50 [3]	Maximum binding (delta MFI) [3]	binding result [4]
BL006-19-183G3-183K4 (antibody, V domains shown, Recombinant mIgG2a/kappa (also made as mIgG2a-D265A); also called BL006-19-183G3-183K4 #3; candidate NO 8) VH: QVTLNESGPGILQPSQTLSLTCSFSGFSLTTYGMGVGWIRQPSGKSLEWLANIWWTEDKYYNSALKSRLTISTDTSHNQVFLKISSVDTEDTATYYCAQMGPEVYSAMDYWGQGTSVTVSS VL: DIVMTPSQKFMSTTVGDRVSITCKASQNVGTAVAWYQQKPGHSPKLLIYSASNRNTGVPDRFTGSGSGTDFTLTISNMQSEDLADYFCHQYSRYPWTFGGGTKLEIK	15 nM	100%	no binding (tested: 10 µg/ml)	4.56 nM	681000 delta MFI	no binding (tested: 1 and 10 µg/mL)
BL006-11-5G1-5K3 (antibody, V domains shown, Recombinant mIgG2a/kappa (also made as mIgG2a-D265A); also called BL006-11-5G1-5K3 #5; candidate NO 5) VH: EVQLVESGGGLVKPGGSLKLSCAASGFTFSSYAMSWVRQTPEKRLEWVAAINTDGASTYFPATVKDRFTISRDNAKNTLYLQMSSLRSEDTALYYCARPLEPGSWFAYWGQGTLVTVSA VL: DVLMTQTPLSLPVSLGDQASISCRSSQSIVHSNGNTYLEWYLQKPGQSPKVLIYKVSNRFSGVPDRISGSGSGTDFTLKISRVEAGDLGVYYCFQGSHVPYTFGGGTKLEIK	–	< 5%	no binding (tested: 10 µg/ml)	12.8 nM	373000 delta MFI	no binding (tested: 1 and 10 µg/mL)
BL006-4-61G5-61K1 (antibody, V domains shown, Recombinant mIgG2a/kappa (also made as mIgG2a-D265A); also called BL006-4-61G5-61K1 #7; candidate NO 3) VH: EVKLEESGGGLVQPGGSMKLSCVASGFTFSNYWMNWVRQSPEKGLEWVAQIRFKSDNYATHYAESVKGRFTISRDDSKSSVYLQMHNLRAEDTGIYYCTEFAYWGQGTLVTVSA VL: QILLTQSPAIMSASPGEKVTMTCSASSRVNSRFLNWYQQKSGVSPKLWIYGTSNLASGVPARFSGSGSGTSYSLTISSVEAEDVATYYCQQYQSDPPITFGAGTRLELI	–	< 5%	binds	2.05 nM	330000 delta MFI	no binding (tested: 1 and 10 µg/mL)
BL006-9-1G1-1K1 (antibody, V domains shown, Recombinant mIgG2a/kappa (also made as mIgG2a-D265A); also called candidate NO 11) VH: EVKLVESGGGLVKPGGSLKLSCAASGFTFSSYAMSWVRQTPERGLEWVAAIQSNGGSTFYPDTVKDRFTISRDNAKNTLYLQMSSLRSEDTALYYCVRGPFDYWGQGTTLTVSS VL: QIVLTQSPAIMSASPGQKVTIPCSASSSVNYIHWFQQKLGSSPKLWIYDTSKLTPGVPARFSGSGSGTSYSLTISSMEAEDAASYFCHQWRSYPPTFGGGTKLEIK	–	< 5%	binds	17.5 nM	514000 delta MFI	no binding (tested: 1 and 10 µg/mL)
BL006-19-55G10-55K7 (antibody, V domains shown, Recombinant mIgG2a/kappa (also made as mIgG2a-D265A); also called candidate NO 15) VH: QVQLQQSGAEVVRPGTSVKMSCKAAGYTFTDNWIDWVKQRPGHGLDWIGNIFPGGNYTNYNEKFKGKATLTADTSSSTAYMQLINLTSEDSAIYYCVRAVADSQFAYWGQGTLVTVSA VL: QIVLTQSPAIMSVSPGEKVTMTCSASSRVTYMYWYQQKPGSSPKPWIYRTSNLASGVPVRFSGSGSGTSYSLTISSMEAEDAATYYCQQWSSNPLTFGAGTKLELK	8.84 nM	98.3%	binds	3.3 nM	636000 delta MFI	no binding (tested: 1 and 10 µg/mL)
BL006-19-21G1-21K1 (antibody, V domains shown, Recombinant mIgG2a/kappa (also made as mIgG2a-D265A); also called candidate NO 13) VH: QVQLQQPGAELVKPGASVKMSCKASGYTFISYWITWVKQRPGQGLEWIGDIYPGSGHTNYNEKFKSKATLTVDTSSSTAYMQLSSLTSEDSAVYYCARPTVEAMDYWGQGTSVTVSS VL: QIVLTQSPAIMSASPGEKVTMTCSASSSVNYMHWYQQRSGTSPKRWIYDTSKLASGVPARFSGSGSGTSYSLTISSMEAEDAATYYCQQWSNNPLTFGAGTKLELK	19.4 nM	100%	binds	6.53 nM	599000 delta MFI	no binding (tested: 1 and 10 µg/mL)
BL006-4-52G6-52K7 (antibody, V domains shown, Recombinant mIgG2a/kappa (also made as mIgG2a-D265A); also called BL006-4-52G6-52K7 #4; candidate NO 2) VH: QVQLQQPGAELVKPGASVKLSCKASGYSFTSYWMHWVKQRPGQGLEWIGQIDPSDSYTNYNQKFKGKATLTVDKSSSTAYMQLSSLTSEDSAVYYCASGNYGPYLGNYFDYWGQGTTLTVPS VL: DIVMSQSPSSLVVSVGEKVTMSCKSSQSLLHSTNQKNYLAWYQQKPGQSPKLLIYWASTRESGVPDRFTGSGSGTDFTLTISSVKAEDLVVYYCQQYYNYPYTFGGGTKLEIK	–	< 5%	binds	13.4 nM	493000 delta MFI	no binding (tested: 1 and 10 µg/mL)
